Experimental data reported in patent publication US20090258024A1.

Biological target: mouse CD147 (mouse) (UniProt P18572)

Rat anti-mouse CD147 monoclonal antibody purified from the RL73.2 hybridoma
migration induced by CypA (Boyden chamber chemotaxis) of mouse neutrophils, monocytes and activated CD4+ T cells: > 90%
